One block for each binder: values may come before it.
Legend:
[1] = target: Antp^AAAA-hTBP pair (VC-Antp YPWM mutant with VN-TBP) as acceptor in BiFC-FRET (Drosophila | human) (UniProt P02833)
[2] = target: AntpΔN-hTBP pair (VC-AntpΔN with VN-TBP) as acceptor in BiFC-FRET (Drosophila | human) (UniProt P02833)
[3] = target: Antp^AAAA, Antp with the YPWM motif substituted by alanines, fused to the C-terminal fragment of Venus (Drosophila), P02833
[4] = target: Antp^I32A−H36A-hTBP pair (VC-Antp HD helix 2 mutant with VN-TBP) as acceptor in BiFC-FRET (Drosophila | human) (UniProt P20226)
Chain of Antp^I32A−H36A-hTBP pair (VC-Antp HD helix 2 mutant with VN-TBP) as acceptor in BiFC-FRET (Drosophila | human) (P20226 whole entry, looked up, stated change not applied, tested part not stated): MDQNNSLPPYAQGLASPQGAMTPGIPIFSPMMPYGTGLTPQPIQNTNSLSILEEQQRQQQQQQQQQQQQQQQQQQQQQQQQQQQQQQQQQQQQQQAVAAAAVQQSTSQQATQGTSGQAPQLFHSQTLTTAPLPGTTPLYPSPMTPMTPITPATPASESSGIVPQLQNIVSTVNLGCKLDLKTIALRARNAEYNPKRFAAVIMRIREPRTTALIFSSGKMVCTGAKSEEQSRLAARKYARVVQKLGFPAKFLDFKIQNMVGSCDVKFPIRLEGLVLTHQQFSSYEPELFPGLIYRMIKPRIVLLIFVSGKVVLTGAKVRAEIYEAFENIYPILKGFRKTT

Chain of AntpΔN-hTBP pair (VC-AntpΔN with VN-TBP) as acceptor in BiFC-FRET (Drosophila | human) (P02833 270-378, stated change not applied, chain 1 of 2): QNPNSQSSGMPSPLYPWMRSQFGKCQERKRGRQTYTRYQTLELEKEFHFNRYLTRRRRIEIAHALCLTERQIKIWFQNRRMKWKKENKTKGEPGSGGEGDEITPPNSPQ
Chain of AntpΔN-hTBP pair (VC-AntpΔN with VN-TBP) as acceptor in BiFC-FRET (Drosophila | human) (P20226 whole entry, stated change not applied, chain 2 of 2, further chain, the tested form may be a part): as the sequence (P20226 whole entry, looked up, stated change not applied, tested part not stated) above
Chain of Antp^AAAA, Antp with the YPWM motif substituted by alanines, fused to the C-terminal fragment of Venus (Drosophila), P02833 (P02833 whole entry, the tested form may be a part): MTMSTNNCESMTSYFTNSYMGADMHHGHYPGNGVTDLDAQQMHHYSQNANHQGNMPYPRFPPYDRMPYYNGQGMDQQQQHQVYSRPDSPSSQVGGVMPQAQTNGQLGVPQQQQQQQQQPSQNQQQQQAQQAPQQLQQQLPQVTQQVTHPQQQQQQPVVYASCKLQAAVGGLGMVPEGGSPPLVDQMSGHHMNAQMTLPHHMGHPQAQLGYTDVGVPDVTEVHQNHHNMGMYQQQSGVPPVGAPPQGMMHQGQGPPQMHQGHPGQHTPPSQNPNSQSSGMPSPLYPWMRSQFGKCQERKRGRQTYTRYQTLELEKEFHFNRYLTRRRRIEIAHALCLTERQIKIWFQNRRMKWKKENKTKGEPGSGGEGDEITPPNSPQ
Chain of Antp^AAAA-hTBP pair (VC-Antp YPWM mutant with VN-TBP) as acceptor in BiFC-FRET (Drosophila | human) (P02833 whole entry, stated change not applied, chain 1 of 2): as the sequence (P02833 whole entry, the tested form may be a part) above
Chain of Antp^AAAA-hTBP pair (VC-Antp YPWM mutant with VN-TBP) as acceptor in BiFC-FRET (Drosophila | human) (P20226 whole entry, stated change not applied, chain 2 of 2, further chain): as the sequence (P20226 whole entry, looked up, stated change not applied, tested part not stated) above

- transactivation on pGLH11 of Antp^AAAA with TBP and Exd, percent of Antp alone (Fig. 5C) [1]: 70%
- transactivation on pGLH11 of AntpΔN with TBP and Exd, percent of Antp alone (Fig. 5C) [2]: 65%
B1: Extradenticle (Exd) (144–376) fused to ECFP (domain or fragment)
chain: DGADNAIEHSDYRAKLAQIRQIYHQELEKYEQACNEFTTHVMNLLREQSRTRPITPKEIERMVQIIHKKFSSIQMQLKQSTCEAVMILRSRFLDARRKRRNFSKQASEILNEYFYSHLSNPYPSEEAKEELARKCGITVSQVSNWFGNKRIRYKKNIGKAQEEANLYAAKKAAGASPYSMAGPPSGTTTPMMSPAPPQDSMGYPMGSGGYDQQQPYDNSMGGYDPNLHQDLSP

- transactivation on pGLH11 of Antp^AAAA with Exd, percent of Antp alone (Fig. 5C) [3]: 97%
B2: Extradenticle (Exd) (144–376) fused to ECFP, P40427 144-376 (domain or fragment)
chain: DGADNAIEHSDYRAKLAQIRQIYHQELEKYEQACNEFTTHVMNLLREQSRTRPITPKEIERMVQIIHKKFSSIQMQLKQSTCEAVMILRSRFLDARRKRRNFSKQASEILNEYFYSHLSNPYPSEEAKEELARKCGITVSQVSNWFGNKRIRYKKNIGKAQEEANLYAAKKAAGASPYSMAGPPSGTTTPMMSPAPPQDSMGYPMGSGGYDQQQPYDNSMGGYDPNLHQDLSP

- transactivation on pGLH11 of Antp^I32A−H36A with TBP and TFIIEβ, percent of Antp alone (Fig. 5B) [4]: 72%
B3: TFIIEβ fused to ECFP (natural protein)
chain: MDPALLREREAFKKRAMATPTVEKKSKPDRPAPPPPSDDSRRKMRPPNAPRLDATTYKTMSGSSQYRFGVLAKIVKFMRTRHQDGDDHPLTIDEILDETNQLDIGQSVKNWLASEALHNNPKVEASPCGTKFSFKPVYKIKDGKTLMRLLKQHDLKGLGGILLDDVQESLPHCEKVLKNRSAEILFVVRPIDKKKILFYNDRTANFSVDDEFQKLWRSATVDAMDDAKIDEYLEKQGIRSMQDHGLKKAIPKRKKAANKKRQFKKPRDNEHLADVLEVYEDNTLTLKGVNPT
